In publication PMC12412624, “Engineered Cas12j‐8 is a Versatile Platform for Multiplexed Genome Modulation in Mammalian Cells” one finds binding signal data, which are given here for one sequence.

Data set [1] has as its system T1, dCas12j-8 E258R+D142R E258R;D142R;D369A;E567A;D658A (bacteriophage (metagenome)).
T1 sequence: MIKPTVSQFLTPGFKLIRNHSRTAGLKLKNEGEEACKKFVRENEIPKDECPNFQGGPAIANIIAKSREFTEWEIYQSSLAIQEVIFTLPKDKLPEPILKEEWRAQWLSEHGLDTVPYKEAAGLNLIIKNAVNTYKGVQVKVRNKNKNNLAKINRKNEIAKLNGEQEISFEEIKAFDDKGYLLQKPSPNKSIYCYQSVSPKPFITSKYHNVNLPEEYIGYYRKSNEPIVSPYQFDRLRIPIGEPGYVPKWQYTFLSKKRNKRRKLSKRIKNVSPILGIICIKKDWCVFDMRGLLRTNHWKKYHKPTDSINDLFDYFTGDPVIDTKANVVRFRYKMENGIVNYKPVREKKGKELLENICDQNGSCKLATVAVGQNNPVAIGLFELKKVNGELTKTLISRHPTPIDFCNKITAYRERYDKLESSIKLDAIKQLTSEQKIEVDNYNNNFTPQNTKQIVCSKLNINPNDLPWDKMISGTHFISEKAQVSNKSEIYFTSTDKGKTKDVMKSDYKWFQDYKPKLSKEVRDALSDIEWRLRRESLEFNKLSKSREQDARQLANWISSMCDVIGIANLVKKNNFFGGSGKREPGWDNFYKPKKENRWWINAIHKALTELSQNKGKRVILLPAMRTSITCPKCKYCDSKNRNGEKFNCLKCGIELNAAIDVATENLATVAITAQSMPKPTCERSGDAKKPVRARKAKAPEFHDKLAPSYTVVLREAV
The conditions noted are these: HEK293T cells; panel 1d (compare within a panel only); scale: mean GFP / mean GFP of wild type, printed, no background subtraction.

In data set [2] the test system is T2, dCas12j-8 E119R E119R;D369A;E567A;D658A (bacteriophage (metagenome)).
T2 sequence: T1 sequence with E119R, R142D, R258E
The conditions noted are these: HEK293T cells; panel 1c (compare within a panel only); scale: mean GFP / mean GFP of wild type, printed, no background subtraction.

Data set [3] concerns T3, dCas12j-8 E258R+D313R+D495R+D527R E258R;D313R;D495R;D527R;D369A;E567A;D658A (bacteriophage (metagenome)).
T3 sequence: T1 sequence with R142D, D313R, D495R, D527R
The settings on record: HEK293T cells; panel 1e (compare within a panel only); scale: mean GFP / mean GFP of wild type, printed, no background subtraction.

Changes are numbered by the printed parent chain.

On to “CUUUCAAGACUAAUAGAUUGCUCCUUACGAGGAGACACUCCCUAUCAGUGAUAGAG / TTNACTCCCTATCAGTGATAGAG / CTCTATCACTGATAGGGAGTNAA [TetO]”, for which the binding signal in data set [1] was determined as 1.87; in data set [2], 1.08; in data set [3], 5.3.
